The target in test [1] is FMRKA peptide, from an IA^b-random peptide baculovirus library peptide on I-Ab (mouse). Nature of the test: SPR, equilibrium. Background: SPR reads the build-up and loss of mass on a sensor chip optically.
Test [2] concerns the target 3K peptide peptide on I-Ab (mouse). Description: SPR, equilibrium.

A word on the Kd: it is the concentration at which binding is half-saturated. For the substance J809.B5 αY31A, the Kd was 22 µM in test [1] and 32 µM in test [2].

Values taken from publication PMC4097884.
